PMC5080355, “Interaction of the Nitrogen Regulatory Protein GlnB (PII) with Biotin Carboxyl Carrier Protein (BCCP) Controls Acetyl-CoA Levels in the Cyanobacterium Synechocystis sp. PCC 6803” (Frontiers in Microbiology, 2016)

Molecular target: E. coli biotin carboxyl carrier protein (His-BCCP), subunit of acetyl-CoA carboxylase (E. coli) (UniProt P0ABD8)

Chain of GlnB (PII) from Synechococcus elongatus PCC7942, wild type (P0A3F4 whole entry): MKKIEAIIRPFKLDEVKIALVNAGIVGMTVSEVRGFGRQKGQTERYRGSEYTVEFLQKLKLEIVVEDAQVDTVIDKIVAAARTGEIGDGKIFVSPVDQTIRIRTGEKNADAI

With “GlnB (PII) from Synechococcus elongatus PCC7942, wild type (from UniProt P0A3F4 1-112) (natural protein)” the EC50 of inhibition of reconstituted E. coli ACC activity by increasing GlnB (coupled PK/LDH assay, 10 mM ATP) was 310 nM and the maximum inhibition of reconstituted E. coli ACC activity (coupled PK/LDH assay, 10 mM ATP) was 93%.
